The series in a line: label from the status in PepcDB records.
For “MESIGLVEVNSIARGIEAADAMLKAAQVDLLEAKPVCPGKYIVLICGDVAAVQSSVTAGKTMAAHSVLDDFILPNVHPQVLTAISAATPLTLIKALGIIETFSIASLIVAADTAAKTGQVDLVEIRIGMGIGGKSFVTLTGDVASVESSVAAGVMLASERGMLVDKVVIPSPHDHLKRCLC”, the protein production entry was “not failed”.
For “MESITEWDLGSLRTYYSVEPSENFQEDEFLDFNLVPCLQTELWKAQTRIKELEAEKFKSEETIRCLIRNQRNEKEETTNPFVDYLKEKLSKEREEKKRVKAENSRLKKKILDMESSVNRLRRERDTMEKVCEELVTRIDELKVNTRRVWDETEEERQMLQMAEMWREERVRVKFMDAKLALQEKYEEMNLFVVELEKCLETAREVGGIEEKRLRHGEGLIKMAKSMEVVDSKIDFERFEFVSDEGNV”, the protein production result is reported as “failed”.
The same measure for “MESITQIYRIGYGPSSSHTIGPRRAAEMFLDRNPRATSFRVTLYGSLAATGKGHLTDAAILAVLEAKAPTEIVWKPEIFQNFHPNGMLFESFDKEGKQLDDWLIYSIGGGVLANEHFNEQ”: “not failed”; for “MESITVTELKEKILDANPVNIVDVRTDQETAMGIIPGAETIPMNSIPDNLNYFNDNETYYIICKAGGRSAQVVQYLEQNGVNAVNVEGGMDEFGDEGLDIKSILEHHHHHH”: “not failed”; for “MESKEERALNNLIVENVNQENDEKDEKEQVANKGEPLALPLNVSEYCVPRGNRRRFRVRQPILQYRWDIMHRLGEPQARMREENMERIGEEVRQLMEKLREKQLSHSLRAVSTDPPHHDHHDEFCLMP”: “not failed”.
Take “MESRWNDEDAARFVEAARAEGQSEALGLRIYTSRLIGSDPDLVLHGGGNTSVKIRSDEGEQLMHIKGSGWDLDTIEAPGLPAVRLASLLEARNTPKLSDPDMVLLLRASLIEKDAPNPSVEALLHAFIPFDYVDHTHATAVLALADQPNMRDAIRRIYGDRLAYVPYVMPGFDLSIAADRIYRSHSDCEGLWLENHGLFSFANDARASYDLMIEFVTLAEQELARAGVALSGPQPNDGER”: the protein production entry is listed as “failed”.
The same measure for “METELVTYKEKNVQMSMLEVIGMIGIIFGVMYGIGYLNFLYEFSLYPWYVNHLISPFTFCMIIVMYAPARNYCVQLVKSIQFNHFKHYVTIVMTMIVLLIYLAVLNLVLPHGLGVEGSNIVIEPTKNEIILYVVVLTIFAPIWEELVFRGMFFMKLSQRFSTLSSAVISAFIFTLGHPLTVGSILYIFGIGICLAYTYKKTNNLLVPIGIHVLNNSFNLLVNFQL”: “failed”; for “METEYDQVLRSVAQVNIADQIGESDDVERDGNGVKVSCFTEVFDDVTIQFQIIRLAKQIYVWVGCNSAKFGSLYAAASTRPSNTVSVTSVLGGTSDNTGSGIARRLVLKTGLNIILACNIPKNNPLLEAKAEKVLIRKLIDLGYTMSKPVRAT”: “failed”.
With “METKANYTIVGIFTLIVIAAAFGFVYWMAEFGRGGPTAQLVVRIPGSANGLSVGSPVRFNGIPVGTVRGLAIDRDDPAYSIAFTEVQADAPVFPSTRAVLEIQGLTGAAYIELSGGNKDGERILQKSVESGVPAELTADLSSVTNLLATADKILKRADGAIGELQGFVQDARGPLTQTVRNAEKFSDALAANSDGIKNFIASLSSLSTTVQSVSVRLDGTLTAVENLVKAVDAGKIDSILSNVDKVTKDVASASSDIQGIMETVQSTARNFEAASTEVQTVVKRADELLASVDPAKVSTVVGDVSAATADARDAVANFKRIADDVGARRADIDQAVSDFTEMGRKLNLASSRVDGILAKVDGMLGTDDANSLFAKARETLTSFKAVADNLNARIGPIADNLTRFSSSGLKDFQALIGSTRQTVDNLNNAITNIDRDPQRLIFGGETVKQYDGRTRRLEHHHHHH”, the protein production result was “failed”.
The entry for “METKCELNNTKKVANAFGLNEEDTNLLINAVDLDIKNNMQEISSELQQSEQSKQKQLGTTLQNLAKQNRIIK” is “failed”.
The entry for “METLELFKVISRWLFLLSIGYYLLTNLQWYSYKIERVFFKHHKWRWHILYFFMPILFFFLLGDYFYIYLYVAQLPGVMLWAKKLDKPLIFTGRVKRFFAIYAGFMLFSELLCTTTGGECDKVLYLFPLFFTILITYVLERVLLNRYATAAKDKLASMPNLTIIAITGSYGKTSLKNFLAQILNDNFKVHASPRSVNTFAGIVADINENLSPLSDIYIAEAGARTRGDIKEIGVLLEHHYGIVGKVGEQHMEYFRTLENVRETKFELAQSPRLKELFSYEGNTPPSGIKATSFPTETRNIKATLKGTSFEMLIEGQFYPFETEVLGEFNVTNISAAILVALRLGIPIEKIQRQVARLKPIPHRLQKMEVNLKLILDDSFNGNLEGMLEAIRLSSLYYGRKVIVTPGLVESTEEANTTLAQAINETFDIAILTGELNLKTLSAHIQKPQKVVVKEKEALEEVLKATTREGDLILFANDAPSYI” is “failed”; for “METQDHTLYVLLGPTGVGKTDLSLDIAERLGSPIISADSRQIFRELPIGTAAPTPEQRAKVPHLFVGTHSVRDYYSAGMYEVEVLEALKELFRKYRGVLLTGGSMMYIDAVCRGIDDIPDPFPEVREELYARYAAEGLDGILAQLRLLDPDYYAKVDRRNYKRVIHGLEICLSTGRPFSSFHRHEAKERPFRIVKIGLYREREELCKRIDARVLEMMEQGLEEEARAVYPLRHLNALNTVGYKEMFEYFDGSIDRAEAVRRIQRNSRVYARKQMTWFRRDSTIRWFHPEADKGTVLTLVT” it is “failed”.
With “METRAHHVLIGLFSVIVIGAALLFGLWLAKSGSEGKFNYYDIVFNEAVSGLSQGSSVQYSGIKVGDVAFLRLDPKDPRKVWARIRVVASAPIKQDTTAKLALTGITGTSIIQLSSGTPASPMLEGKDGKIPVIVATPSPLTQLLSNGEDLMGNINQLIARFSNLLSEENTARISRTLDHLDQATGALSAERENVSAVMQQLAQASRQANAALAQASELMRSANGLLNEQGKGMLENANKTMASLERTSATLDQLISENRHSLDGGIQGLAELGPAVSELRDTLAALRGISRRLEENPANYLLGREKTKEFTP”, the protein production result was “failed”.
Turning to “METRASYILVGVFTLLAVTGALAFVLWTAGRGEGKAMAAYDVHFSGNVMGLSVASDVFFNGVKVGAVKQITLNPDDPAKVKVRIEIDATTPVREDSVASLEGRGLTGVSVVQITGGSPHAPLLVGTAGEVPVIASRASRLEELFAGMPQLVGSGNELVNRLADVLNAENRAALASTFHALDTVTARMAARADSLDRIITNMDTTTRRLANASAGLETLAGDMRDLTRGDMRDSIVAVGNTARRLDALLAAAEPGVTGFSTEGLEDMRRLLIESRHLVTTLNRMAQRMESDPRRFMFGNQLPEYEER”, the protein production result is recorded as “failed”.
On to “METRTLEDWRALLEAEKTLDSGVYNKHDLLIVRGQGARVWDAEGNEYIDCVGGYGVANLGHGNPEVVEAVKRQAETLMAMPQTLPTPMRGEFYRTLTAILPPELNRVFPVNSGTEANEAALKFARAHTGRKKFVAAMRGFSGRTMGSLSVTWEPKYREPFLPLVEPVEFIPYNDVEALKRAVDEETAAVILEPVQGEGGVRPATPEFLRAAREITQEKGALLILDEIQTGMGRTGKRFAFEHFGIVPDILTLAKALGGGVPLGAAVMREEVARSMPKGGHGTTFGGNPLAMAAGVAAIRYLERTRLWERAAELGPWFMEKLRAIPSPKIREVRGMGLMVGLELKEKAAPYIARLEKEHRVLALQAGPTVIRFLPPLVIEKEDLERVVEAVRAVLA”, for which the protein production entry is listed as “not failed”.
In the case of “METTSVFRADFLSELDAPAQAGTESAVSGVEGLPPGSALLVVKRGPNAGSRFLLDQAITSAGRHPDSDIFLDDVTVSRRHAEFRLENNEFNVVDVGSLNGTYVNREPVDSAVLANGDEVQIGKFRLVFLTGPKQGEDLEHHHHHH”, the protein production entry is on record as “failed”.
Turning to “MEVIREQEFVNQYHYDARNLEWEEENGTPKTNFEVTFQLANRDEAAKVTSIVAVLQFVIVRDEFVISGVISQMAHIQGRLINEPSEFSQDEVENLAAPLLEIVKRLTYEVTEIALDRPGVTLEF”, the protein production entry is “not failed”.
For the sequence “MEVIVVDDEELSLNRLGNMLAGMPGVEVCGLFYTAAEALRYINENKPDAVFLDICIPETDGLALANKIKDIDGSAKVVFVTGYDEYAVRAFELEAVDYLMKPISRDRLEKTVQRLQRTLLGTDRQSNPQMKVSCFGGFRATVCESDSGSVNWRSPKTEELFAFLIFKRNVSRDEIANTLWDGLEPGRALTNINSTMYYIRKALSPHGLEKCIAATRKEIRIDSELISCDLYEFERLLRGRPSSKDRVETLDRLAELYKGELFQGKAYEWSFAKSRSLESGFISALLETAEYYREKRGYEQAEKMYKRAFEIDPFNEDICGHIIQICLKMGRKSEALRLYLQMEKFLMEELGEKPQAKLKKLFEEQ”, the protein production entry was “failed”.
The entry for “MEVKFLDYTLRVGGEAGQGLQTIGGALAKIFSRKGYHVFTHQDYMSRIRGGHNFYQLRFSDREVMASKELVDILLALDLNTIEIHKNSVREDGFILYDSESMKKKFEGPQFIDIPFRKIALDVGKKSVMANTVATGAVLGLLDLGLDLLNDILRVTFEDKGKEIIEQNIACAEAGYNYAHSNCSRCEAFGIPEPEARKLLLIDGVQAIGMGALMSGCTFYSAYPMSPSTGILNYLASRAEEYGLVIEQAEDEIAAINMTIGASFAGARAMTGTSGGGFSLMAEGISLAGITETPLVLAEMQRPGPATGLPTRTEQGDLLFVLNAGHGEFPRVIFEPGTPEQAFYLTSKAFELAEKYQIPVFILSDQYLGESEWTFESFDLKRPVYNDYRVREKDLEGAEDYKRYGYTDTGISPLAVPGEAGKHLVVADSDEHDEEGHIIEDAETRIKMVQKRLLKKLPLIKEEIEAPLLYGDSSPEIVLVGHGSTYGVIKEIVDIFSKDKKIAMMHFSQIYPFPERDRFDYIEFLKNANLVISVENNATGQFAKLMRAETGFEFARQILKYDGRPFTIEKLKEEIDACL” is “failed”; for “MEVNGEEERRSRREDEEKEDYYYSLLNSPCSVCNKFVQAILKCLGLESSSIPPSSSSSSPSLVEEEDSGTETVEETGFMARITAVLRRRPRPPPYSSGRPGQNN” it is “not failed”; for “MEVNNETMQKSKFGRICVFCGSSQGKKSSYQDAAVDLGNELVLRNIDLVYGGGSIGLMGLVSQAVHDGGRHVIGVIPKTLMPRELTGETVGEVRAVADMHQRKAEMARHSDAFIALPGGYGTLEELLEVITWAQLGIHDKPVGLLNVDGYYNSLLSFIDKAVEEGFISTNARQIIISAPTAKELVKKLEEYSPCHESVATKLCWEIERIDYSSED” it is “failed”.
With “MEVTLLGTGDTTGTPTVQCDCDTCERARDPDEELRANVRERGIDPTGGVERSRFSVAVENDTTGESLLVDLSPDFRHQFLRESVPLPDAAIITHIHFDHLDGLGNAYRLFDELPVHAADETDPVTDESVAEAVRSRYDYLDTVSVHAQTPLEPFTVAGFEVTLVPVTHPPLLCYGLRIEEPQTGAVLSISGDTCYDVPDRSKSVLTGADLALVEGIVHPEACEYHPKGGTHHNEDGVPRTFGTKHMTLPGARDFAADIEADDYRIVHTAHYVPADRAFADDIGLDGEQFML”, the protein production result is reported as “failed”.

(Values after a protein production outcome set (Wang et al. 2014).)
